Assay results reported in the DeepSol protein solubility set.

Assay: soluble on expression in E. coli; label from the status in PepcDB or PDB records

Row | Sequence | soluble on expression in E. coli
1 | MTLYPKLILDALATVRYPGTGKNLLEAEMVADNLRIDGMAVSFSLIFEKPTDPFMKSMLKAAETAIHTYVSPDVQVTITTESKQAARPEVGKLLPQVKNIIGISSGKGGVGKSTVSANLAVALAKLGYKVGLLDADIFGPSMPKMFQVEDARPYAEKINGRDLIIPVEKYGVKLLSIGFFVDPDQATLWRGGMASNALKQLIGDADWGDLDYFLIDLPPGTSDIHLTVVQTLAMTGAIVVSTPQAVALADARKGINMFTNDKVNVPILGLVENMAWFTPAELPENKYYIFGKEGAKKLAEEMNVPLLGQIPIVQSICEGGDNGTPVALDEDTVTGRAFLSLAASVVRQVDRRNVEMAPTKIVEMH | not soluble
2 | MTNDNSGIWVLGYGSLIYKPPSHYTHRIPAIIHGFARRFWQSSTDHRGTPANPGRVATLIPYEDIIRQTAFLKNVNLYSESAPIQDPDDLVTIGVVYYIPPEHAQEVREYLNVREQNGYTLHEVEVHLETNREHEAELGEALEQLPRHNKSGKRVLLTSVYIGTIDNEAFVGPETVDETAKVIAVSHGPSGSNYEYLAKLEQALAQMPIMKERGRITDHYLTALLETVNKYR | soluble
3 | MTNDYQQLNYLVETDDEADIIIANLVKQLNELKEILLSLDNQDLEINQVNHRTTVHNTSSNTSNNSTSNNIADGNYNSNFFHNFSKETLQTQAKRGFLLLERCSLVGLQQLELEYLNVLGRSFESHQDKINFLVNLRDLTNDHLLDTEKIVSTLEQIFNVIGGTEYTPILNSFFNQSLNDPDPIQREIGLKQFVANLRQRFKTLLQKTNNSIQQLEAEIQIPTTHIKSDEVMFGPPDMNERLVLNDSETDAILRSIEAELESALQNKKQVVVTAVPPIAANLATDSISQETLEHNLNNTETVNTTTVTVTSASETQVRKPQISLRPIFQGNFPKRLSREDIQRYAHQLQELEQSNEG | soluble
4 | MTNEKGLDKGYELVAKMHEVFGHPVTNTPTKLTEERAKIRASFMQEELEEFLEATTVEDQYDALIDLIYFAFGTFAEMGVRPDKGFEIVNNANMAKLFPDGKPRFREGDGKILKPEGWQAPEPQLRAEIERQRQEAEKNC | soluble
5 | MTNNSTKVCVLLATYNGTKWCLDQVKSILNQEDVNLEVFVSDDLSSDSTTDLLALLNDSRIHILASSYKFGSACQNFFRLVRDVDFSEYDYIAFADQDDLWNPNKLSYSIEQLNAHCADAFSSNVTAFWPDGRARLIVKDQPQREWDFLFESAGPGCTFVLTKKLACNLANFLHNNYEKTKGVALHDWFTYAFARSNSYSWWIDSQPTMMYRQHESNEFGVNSGVTAALSRFRKTSNGWYRNQVILIGDLVGAEDSWPIKRMRRFSLLDRMLLLFNVFAFRRSFRDRIALFFLLLLPQKKLEHHHHHH | soluble
6 | MTPDVLFESLWQDYIQRLCPSAAKVHQLLQEDEALINDHIALRTFNVEPLGIETLAKPFLAAGYKACGDYVFESKKLVAKHYEHPDPKQPKVFISELKVEECSPDLQDIVAKLASQVDAEKLSGSAFLHGGRLWDLSFADYQTLAKESEYASWLAAHGYGANHFTVSVNQLNQHDEVKQVNDHLRQAGFVINESGGEVKGSPEVLLEQSSTMADKVPVTFEEGLEIIPGGFYEFAKRYPMENGELYPGFVAASADKIFESTNGLEHHHHHH | soluble
7 | MTPISGRCEMAEVTNIPNPGHTSSWYAASANVKSVRPTLEGALEADVCIIGGGFTGISAALELSERGYAVIVLEGVRVGFGASGRNGGQIVNGYSRDLETIARRYGHEKAVKLGEMSLEGGTIIRSRVAKYGIDCDLVDGGFFAAFTPKQIREMEAHKAHWEKHGHGGLEMVSEADVGQYVKTNRYAGGMIDRFGGHIHPLNLVQGEAAAAESLGARIFENSRVIAVEQGANPIVRTAMGSVKAKYVLVCGNAYLGTLLPEIGERMMPVSSQVMATEPLDADLIEALLPANYCVEDANYILDYYRRTSDNRLLYGGGIGYGGSDPADLTGVIRPNMLKTFPQLEKTKIEFAWSGNFALTLTRIPHMGRLSDNIYFSHGDSGHGVTTTHLLGKILGEAVAGHAERFDIWSSLPNYPFPGGKTFRVPLTMLGAWWYGLRDKLGLLEHHHHHH | not soluble
8 | MTPKRALISLTSYHGPFYKDGAKTGVFVVEILRSFDTFEKHGFEVDFVSETGGFGWDEHYLPKSFIGGEDKMNFETKNSAFNKALARIKTANEVNASDYKVFFASAGHGALFDYPKAKNLQDIASKIYANGGVIAAICHGPLLFDGLIDIKTTRPLIEGKAITGFPLEGEIALGVDDILRSRKLTTVERVANKNGAKYLAPIHPWDDYSITDGKLVTGVNANSSYSTTIRAINALYSVEHHHHH | soluble
9 | MTPLERYQADLKRPDFFHDSAQENAVRHLQRLYEDLVAAHDSKPGLFGKLFGKKEPTLVKGLYFWGGVGRGKTYLVDTFFEALPFQDKVRTHFHRFMKRVHEEMKTLKGERNPLTIIAKRFSDEARVICFDEFFVSDITDAMILGTLMEELFKNGVTLVATSNIVPDGLYKDGLQRARFLPAIALIKQNTDIVNVDSGVDYRLRHLEQAELFHFPLNDAAQESMRKSFKALTPDCAETVENDVLMIENREIRALRTCDDVAWFDFRELCDGPRSQNDYIELGKIFHAVLLSGVEQMDVSTDDIARRFINMVDEFYDRNVKLIISAEVELKDLYTGGRLMFEFQRTLSRLLEMQSHEFLSRAHRP | not soluble
10 | MTPLGPASSLPQSFLLKCLEQVRKIQGDGAALQEKLCATYKLCHPEELVLLGHSLGIPWAPLSSCPSQALQLAGCLSQLHSGLFLYQGLLQALEGISPELGPTLDTLQLDVADFATTIWQQMEELGMAPALQPTQGAMPAFASAFQRRAGGVLVASHLQSFLEVSYRVLRHLAQP | soluble
11 | MTPTLETKYVFTITARIGDVTSAGEIGTGVRRIIPILGGEVKGEGISGQVLPFGADFQIIRPNELIELEAKYAFETDDGAVVYVENVGIRFGPVELLRKLKRGEPVDPKVIYFRTRPRFETGHPNYQWLMQYLFVGSAARHADRVVIDVHQVL | soluble
12 | MTPTPLHSITPFSMLDFPSMLSCILWFSGCNLACSYCYNPEFLKESGKIDLEGLLSFLRSRVGLLEGVVFSGGEATLFAGLPLWMEEVRSLGFKIKLDTNGTNPAMLKELLQKGYLDYVAMDFKGKEERFGMITGREFYGRFLESLEILLSSSIPFEIRTTVHSYLLQEEDIAEMAALLKERG | not soluble
13 | MTQEYQLRILPEIAANEQRLKEYISKEKGINLRNITATRILKRSIDARQRTIFVNLKVRAYINEMPKEDEFERTIYNNVEGKPQVIVVGAGPGGLFAALRLIELGLRPIIVERGKDVRERKKDLAQISREHTVDPESNYSFGEGGAGAYSDGKLYTRSKKRGNIDKILNVFCQHGASAAILADAHPHIGTDKLPRVIENMRNTIIECGGEVHFQTRMDALIIENNEIKGIETNTGKTFLGPVILATGHSARDVYRWLAANGVTIEAKGIAVGVRLEHPAMLIDQIQYHNKNGRGKYLPAAEYSFVTQAEGRGVYSFCMCPGGFIVPAASGPEQVVVNGMSPSNRGSRWSNSGMVVEIQPEDFISGELKMESGELAAQQNAQLLAINPLLSNSQLSTLKTQLTPLHFQEELERQCWLQGGRRQTAPAQRMLDFTRKKLSFDLPESSYSPGLISSPLHFWMPDFISKRLSLGFQQFGRTSHGFLTNEAVMIGVETRTSSPVRIVRDKETLQHVTVRGLFPCGEGAGYAGGIVSAGVDGERCAEAVANYINHLEHHHHHH | not soluble
14 | MTQLATICYIDNGDSLLLLHRNKKENDVHKGKWISVGGKLEAGETPDECARREILEETHLTVTEMAFKGIITFPEFTPGHDWYTYVFKVTGFEGDLISDEESREGTLEWVPYDQVLEKPTWEGDYDIFKWILEDRSFFSAKFTYDQNNQLMDKSVTFY | not soluble
15 | MTQQLVKKGQQISLKIKRLGINGEGIGYYKKLIIFVPGALPKEEVTATITNVTPKFAEGTLQSVKKAAKDRVVPPCPVYETCGGCQLQHLAYKAQLDFKKDLLKQALNKFKPANYQNYELRKTIGMDNPWNYRNKAQFQLRQIDGQVEAGLYQADSHQLVPIDNCLVQQPATTKVMNTLVDLLNDFQLPIYDERKNSGIFRTLMVRVGIQTGEVQVVFITQSQKFPQKEKMVRAINEQLPEVVSIMQNVQNKKTSLVMGDDTLHLWGKESIEEHINDVVFDLSPRAFFQLNPEQTEVLYNEGIKALDLQPNETVVDAYCGVGTIGLSLAKQAHQVRGMDTIPAAIDDARFNAKRLGVTNTHYAVGTAEDLLPKWFKEGFKPDAIVVDPPRTGLDRKLLTALLKQPPKKMVYISCNVSTLARDLVQLAKVYQVDYLQSVDMFPQTARCEVVVKLTRK | not soluble
16 | MTQRDTGRLDAIVLAAGRGVRFGGGKLTALLDGDPLVAAALLTAFLAPARRVVVAVGPEPDVRQAVEATATRLLARERLVLVPIDDPSAGMGASLAAAARSLPGDTDGVFVFLGDMPRIDPATPRHLAAALRDPGDIVAPTYLGRRGHPVLFGARWAPVLGALSGDEGARAIVDKAGESLVLVPVDDPGVHLDVDRPSDLARVQTDRRTLLEHHHHHH | soluble
17 | MTQSNPFQQYGITSGLAAAAAAKASVLAAMGTISDYVGVPTPIGLRIEVKVEMMKQIDARSGIAAVRKFSGDNPDTLNGALFESRAVIRDDGLINIFAGEGIGVAVSDGLPVRRGDPAINPVARMMIENAVREVSGSAGFDVYISVPGGEDLARDTMNPRVGISGGISILGTTGIEEPVSGPDYEAHIEYLLQTGRCVSTVAVMCPGNTAMRFAESYLRLHPASFILTGDRIGSAIEMAIEKGYREIVVFGLPGKLVKMAAGVMNTHSRIADARFETIAAYAALNGADRDTISKILSSNTVESAFAVLRSIGLLDSVAGAIASRIVERLRSPVWQIRRILLRHDRFRRQAIRVSPVAGHIETGE | not soluble
18 | MTQVTVKELAQVVDTPVERLLLQMRDAGLPHTSAEQVVTDSEKQALLTHLKGSHGDRASEPRKITLQRKTTTTLKVGGSKTVSVEVRKKKTYVKRSPDEIEAERQRELEEQRAAEEAERLKAEEAAARQRAEEEARKAEEAARAKAAQEAAATAGAEPAVVADVAVAEPVAKPAAVEERKKEEPRRVPKRDEDDDRRDRKHTQHRPSVKEKEKVPAPRVAPRSTDEESDGYRRGGRGGKSKLKKRNQHGFQNPTGPIVREVNIGETITVAELAAQMSVKGAEVVKFMFKMGSPVTINQVLDQETAQLVAEELGHKVKLVSENALEEQLAESLKF | not soluble
19 | MTRLLDATWEKELLAASARLSQAQEENFLDLVDAAEGRIDETIARVLLRTFSAKDDYGTQERVVSVLSTGADQVVIDAIVEEMPRLALEAPEWAQTLLGTEVEFRPDLTARALSQAPTICRIAAENILKNEDFQSQYPNAALVLGQLDA | not soluble
20 | MTRLPKLAVFDLDYTLWPFWVDTHVDPPFHKSSDGTVRDRRGQNIQLYPEVPEVLGRLQSLGVPVAAASRTSEIQGANQLLELFDLGKYFIQREIYPGSKVTHFERLHHKTGVPFSQMVFFDDENRNIIDVGRLGVTCIHIRDGMSLQTLTQGLETFAKAQAGL | soluble
21 | MTRQHSTQPDPKLDLVLERTIDVPPALVWQAWTQPEHIKHWLTPAPWQTVRCDVDLRPGGRFRFVMRSPEGEEHTHDCCYLEIVEGSRLVWTNALLPGFRPAGGGGDVPAFTAVIRIEPHDQGTRYTATAMHGTQAGCRQHSDMGFHDGWGAALDQLVAHARNMQQASLEHHHHHH | soluble
22 | MTSEQNIQTFRDFLTQYNLVAEQCFNSCVNEFGSRTVSGKEESCANNCLDKFLKMTQRVSQRFQEHQLLNAQANGAAIKVENGGKINKIQ | not soluble
